Data reported in patent publication US20210403586A1, “MUTANT OF RANKL AND PHARMACEUTICAL COMPOSITION COMPRISING SAME FOR PREVENTING OR TREATING OSTEOPOROSIS” (INDUSTRY-ACADEMIC COOPERATION FOUNDATION CHOSUN UNIVERSITY, priority 2018, published 2021).

Columns and labels:
RANKL [1] = experiment: Western blot of serum for antibodies after mtRANKL immunization; assay type: in vivo, mouse; conditions: mice immunized 3 times with 0.2 mg mtRANKL with aluminum hydroxide adjuvant
Method: Proteins were separated by SDS-PAGE and electropermeated into a nitrocellulose membrane (Bio-Rad). After blocking the membrane with 5% (weight/volume) skim milk in TBST [10 mM Tris (pH 7.5), 150 mM NaCl, 0.1% (vol/vol) Tween 20], each mouse serum for primary antibody in the blocking solution was examined. The membrane was washed three times with Tris buffered saline. […] peroxidase (HRP)-conjugated secondary antibody was diluted 1:5000 with TBST in 1% (wt/vol) skim milk powder. ECL_system (Amersham Pharmacia Biotech) was used as the membrane.
(§1) 17-week-old […] BALB/c mice were equally divided into 3 groups. The group was divided into a negative control group in which PBS was intraperitoneally injected, a group in which only wtRANKL was injected, and a group in which wtRANKL was injected after immunization with mtRANKL for 52 days. mtRANKL was injected after mixing with an aluminum hydroxide adjuvant. The immunization process started with 1st immunization of mtRANKL at 52 days, 2nd immunization at 39 days, 3rd immunization at 14 days each before injection of wtRANKL, and a total of 3 immunizations was performed. The amount of mtRANKL was 0.2 mg per mouse.
To determine whether antibodies were produced due to mtRANKL immunization, Western blot of Reference Example 4 was performed on the collected serum, and the results are shown in FIG. 6A.

BMMs [2] = experiment: Bone-resorption assay (Osteo Assay Surface plates); assay type: cell-based, mouse; conditions: 6 days, mRANKL-MT3 150 ng/mL
Method: (§2) We used bone-resorption and F-actin ring formation assays to investigate osteoclast activity. To observe bone resorption in vitro, BMMs were cultured in Corning Osteo Assay Surface 96-well Multiple Well Plates (Sigma) with 30 ng/mL M-CSF and 75 ng/mL sRANKL (soluble RANKL; R&D Systems) or isolated RANKL for 6 days. Then, the plates were washed with pure water. To monitor actin ring formation, BMMs were grown on glass slides. After culture, the cells were fixed with 4% formalin, permeabilized with 0.5% Triton X100 in PBS for 5 min at room temperature, and incubated with 0.5 mg/mL TRITC-labelled phalloidin for 30 min. The cells were then rinsed with PBS. F-actin rings were visualized using a fluorescence ECLIPSE Ts2R microscope (Nikon, Tokyo, Japan).

BMMs [3] = experiment: F-actin ring formation assay; assay type: cell-based, mouse; conditions: mRANKL-MT3 150 ng/mL
Method: as §2

wtRANKL-induced mouse = experiment: mtRANKL immunization in wtRANKL-induced osteoporosis mice, micro-CT; assay type: in vivo
Method: (§3) The right femur of each mouse subjected to each experiment was incised and CT imaging was performed using a Quantum GX pCT imaging system (PerkinElmer, Hopkinton, Mass., USA) located at the Korea Basic Science Institute in Gwangju. As for the X-ray source, the field of view was set to 45 mm, 90 kV and […] (voxel size, 90 μm; scanning time, 14 minutes). CT imaging was performed using a Quantum GX 3D Viewer software. After scanning, image segmentation was performed in Analyze (AnalyzeDirect, Overland Park, Kans., USA). Briefly, the legs were segmented using semi-automatic and manual tools (e.g., object extractor, area expansion, and object separator) using volume editing tools. Then, a 3D rendering of the leg was created, and bone mineral density (BMD), bone volume (BV), bone volume percentage (%), and trabecular thickness were calculated using the ROI tools.
as §1
(§4) After 52 days, PBS was injected into the negative control group and wtRANKL was injected into the other two groups. Next day, wtRANKL was injected once more. wtRANK was subcutaneously injected (2.0 mg/kg). Serum was collected to determine the titer of anti-RANKL antibody. Then, after extracting tibias, the adhesive soft tissues of tibias were removed.
To examine whether RANKL has a bone destruction effect when RANKL was injected after immunization with mtRANKL, micro-CT analysis was performed by the method of Reference Example 6.

RANKL [4] = experiment: ELISA of serum RANKL levels; assay type: in vivo, mouse; conditions: wtRANKL 2.0 mg/kg s.c. to non-immunized mice, or to mice immunized with mtRANKL
Method: A commercially available enzyme immunoassay kit (R & D Systems, Minn., USA) was used to measure RANKL levels in the serum of mice according to the manufacturer's protocol. Absorbance (450 nm) was measured in a colorimetric microplate reader (BioTek, Winooski, USA). The reading of the absorbance was then subtracted from the reading at 570 nm.
as §1, §4

isolated spleen cells = experiment: Th1/Th2 cytokine secretion of isolated spleen cells; assay type: cell-based, mouse; conditions: culture supernatant of Sham and IM splenocytes stimulated with sRANKL or mRANKL-MT3
From the text: To determine whether mRANKL-MT3 immunization influences Th1 and Th2 cytokine production, we evaluated the effects of mRANKL-MT3 on IL-4 and IL-10 secretion, which are markers for Th2 responses, and IFN-γ, a marker for Th1 responses, in the culture supernatant of isolated spleen cells stimulated with sRANKL or mRANKL-MT3 (FIG. 8C).

[5] = system: ovariectomized (OVX) mice; experiment: mtRANKL immunization in ovariectomized (OVX) mice, micro-CT; assay type: in vivo, mouse; conditions: mice ovariectomized after immunization with mtRANKL vs OVX mice
Method: as §3, with “The right femur of each mouse subjected to each experiment was incised and CT imaging was performed using a Quantum GX pCT imaging system (PerkinElmer, Hopkinton, Mass., USA) located at the Korea Basic Science Institute in Gwangju.” left out
17-week-old […] BALB/c mice were equally divided into a group that was given OVX after immunization with mtRANKL, a group that was given only OVX, and a non-treated negative control group.
The mtRANKL-immunized group was immunized with mtRANKL a total of three times: started with 1st immunization at 52 days, 2nd immunization at 39 days, 3rd immunization at 14 days each before OVX. mtRANKL used in the immunization was injected after mixing with an aluminum hydroxide adjuvant. The amount of mtRANKL was 0.2 mg per mouse.
52 days after 1st immunization, OVX was performed. On day 70 after OVX, serum were collected and tibias were extracted, and then the adhesive soft tissues of tibias were removed. […]

[6] = wtRANKL-injected mice vs mtRANKL-immunized mice with wtRANKL injection

B1: mRANKL-MT3: mouse RANKL mutant: K180R, D189I, R190K, H223F, H224Y; nucleic acid SEQ ID NO: 3 (protein, UniProt O35235 158-316, looked up, variant K180R D189I R190K H223F H224Y)
chain: KPEAQPFAHLTINAASIPSGSHRVTLSSWYHIKGWAKISNMTLSNGKLRVNQDGFYYLYANICFRFYETSGSVPTDYLQLMVYVVKTSIKIPSSHNLMKGGSTKNWSGNSEFHFYSINVGGFFKLRAGEEISIQVSNPSLLDPDQDATYFGAFKVQDID
With B1 the “antibodies in serum (Western blot)” value (RANKL [1]) was “antibodies were detected”, the resorption pits (BMMs [2]) was “no resorption pits” and the F-actin ring formation (BMMs [3]) was “no resorption pits or F-actin rings were observed”. The “bone volume and percentage of bone volume” value (wtRANKL-induced mouse; compared with PBS-treated mice) was “maintained at similar levels”, the BMD of tibias (wtRANKL-induced mouse; [6]) was 795.8 ± 11.9 mg/mL and the “trabecular bone architecture of proximal tibias (micro-CT)” value (wtRANKL-induced mouse; [6]) was “thicker fibers and higher density than the wtRANKL-injected mice”. The “level of RANKL in the blood (ELISA)” value (RANKL [4]) was “eliminated”, the IFN-γ levels (isolated spleen cells) was “no significant differences” and the “IL-4 and IL-10 secretion” value (isolated spleen cells) was “significantly increased”. The BMD of tibias [5] was “significantly higher” and the “trabecular bones of proximal tibias (micro-CT)” value ([5]; day 70 after OVX) was “thicker fibers and higher density than those of OVX mice”.
